Substitutions are numbered along the chain they refer to. Numbers in names are those of the source. No end group written: not given here.

The results in this text go back to PMC2749713 (Molecular cell, 2009).

In one assay the target is PP2A C subunit (Cα) (human, UniProt P67775 1-309). Briefly: crystal structure.
For assay [1], the target named is FLAG-tagged MBP-Sgo1(47-105) (human, UniProt Q5FBB7 47-105). Briefly: pull-down.
The next assay addresses AαB56γCα PP2A holoenzyme (human, UniProt P30153 2-589; Q13362 1-524; P67775 1-309). Put plainly: SEC + other: dynamic light scattering.
Assay [2] has as its target FLAG-tagged MBP-Sgo1(47-105) N61I (dimerization assay) (human, UniProt Q5FBB7 47-105, N61I). Put plainly: pull-down.
In assay [3] the target is FLAG-tagged MBP-Sgo1(47-105) N60A/K62A (dimerization assay) (human, UniProt Q5FBB7 47-105, N60A | K62A). Briefly: pull-down.
The target in assay [4] is FLAG-tagged MBP-Sgo1(47-105) Y57A/N60A (dimerization assay) (human, UniProt Q5FBB7 47-105, Y57A | N60A). Put plainly: pull-down.
Assay [5] deals with FLAG-Sgo1(51-105) peptide (human, UniProt Q5FBB7 51-105). Briefly: pull-down.
Assay [6] has as its target FLAG-tagged MBP-Sgo1(47-105) Y57A/K62A (dimerization assay) (human, UniProt Q5FBB7 47-105, Y57A | K62A). Put plainly: pull-down.

Sequence of AαB56γCα PP2A holoenzyme (P30153 2-589, chain 1 of 3): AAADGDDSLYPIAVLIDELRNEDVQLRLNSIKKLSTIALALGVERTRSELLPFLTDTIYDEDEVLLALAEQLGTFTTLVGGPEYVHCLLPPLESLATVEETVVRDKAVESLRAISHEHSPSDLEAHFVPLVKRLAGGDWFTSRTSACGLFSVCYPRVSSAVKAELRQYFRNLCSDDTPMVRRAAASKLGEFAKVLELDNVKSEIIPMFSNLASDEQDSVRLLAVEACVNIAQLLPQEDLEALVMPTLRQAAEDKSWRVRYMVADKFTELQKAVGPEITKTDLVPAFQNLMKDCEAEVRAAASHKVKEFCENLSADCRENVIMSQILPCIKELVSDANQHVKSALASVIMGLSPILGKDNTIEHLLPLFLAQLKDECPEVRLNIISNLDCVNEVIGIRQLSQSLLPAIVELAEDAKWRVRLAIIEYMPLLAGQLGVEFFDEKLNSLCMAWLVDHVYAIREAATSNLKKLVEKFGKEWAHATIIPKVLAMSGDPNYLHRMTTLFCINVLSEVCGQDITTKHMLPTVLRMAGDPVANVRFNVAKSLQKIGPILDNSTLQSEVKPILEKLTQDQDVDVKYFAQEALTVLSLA
Sequence of AαB56γCα PP2A holoenzyme (Q13362 whole entry, chain 2 of 3): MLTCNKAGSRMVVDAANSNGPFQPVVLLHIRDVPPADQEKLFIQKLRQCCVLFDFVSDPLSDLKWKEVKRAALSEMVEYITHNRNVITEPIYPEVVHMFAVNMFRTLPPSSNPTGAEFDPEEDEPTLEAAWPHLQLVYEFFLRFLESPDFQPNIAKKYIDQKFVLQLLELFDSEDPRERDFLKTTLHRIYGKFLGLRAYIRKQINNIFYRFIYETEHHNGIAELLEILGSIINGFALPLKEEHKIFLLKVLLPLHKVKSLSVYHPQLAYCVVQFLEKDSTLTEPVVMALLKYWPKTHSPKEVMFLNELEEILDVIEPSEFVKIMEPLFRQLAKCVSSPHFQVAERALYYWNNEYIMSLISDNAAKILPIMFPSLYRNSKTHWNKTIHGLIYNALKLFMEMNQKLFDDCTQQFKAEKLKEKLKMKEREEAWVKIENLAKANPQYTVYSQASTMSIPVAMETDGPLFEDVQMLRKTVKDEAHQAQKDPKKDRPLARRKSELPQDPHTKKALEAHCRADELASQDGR
Sequence of AαB56γCα PP2A holoenzyme (P67775 whole entry, chain 3 of 3): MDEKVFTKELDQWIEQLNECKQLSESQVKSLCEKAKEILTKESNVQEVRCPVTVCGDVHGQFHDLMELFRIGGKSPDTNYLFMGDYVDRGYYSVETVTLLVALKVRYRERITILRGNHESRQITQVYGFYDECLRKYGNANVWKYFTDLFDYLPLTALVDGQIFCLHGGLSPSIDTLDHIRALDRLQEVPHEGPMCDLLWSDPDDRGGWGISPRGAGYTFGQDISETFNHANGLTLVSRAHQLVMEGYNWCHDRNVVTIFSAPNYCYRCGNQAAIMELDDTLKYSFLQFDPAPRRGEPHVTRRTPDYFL
Sequence of PP2A C subunit (Cα) (P67775 whole entry): as the sequence (P67775 whole entry, chain 3 of 3) above

On to STLLKNYQDNNKMLVLALENEKSKVKEAQDIILQLRKECYYLTCQL (peptide, UniProt Q5FBB7 51-96, looked up) [Sgo1(51-96) peptide], for which the binding result with PP2A C subunit (Cα) is “binds”.

B1: MBP-Sgo1(51-105) (domain or fragment, human, UniProt Q5FBB7 51-105, looked up)
chain: STLLKNYQDNNKMLVLALENEKSKVKEAQDIILQLRKECYYLTCQLYALKGKLTS
With B1, in assay [1], the binding result is “binds”. The stoichiometry N (usually the number of molecules, sites or subunits per partner or assembly) with AαB56γCα PP2A holoenzyme was 2 Sgo1 per PP2A holoenzyme.

B2: MBP-Sgo1(51-105) N61I, untagged (dimerization assay) (domain or fragment, human, UniProt Q5FBB7 51-105, looked up)
chain: B1 chain with N11I
modifications: cysteine pairing not given here; also: MBP fusion
As to B2, the binding result in assay [2] is “binds”.

B3: MBP-Sgo1(51-105) N60A/K62A, untagged (dimerization assay) (domain or fragment, human, UniProt Q5FBB7 51-105, looked up)
chain: B1 chain with N10A, K12A
modifications: cysteine pairing not given here; also: MBP fusion
For B3, in assay [3], the binding result is recorded as “binds”.

B4: MBP-Sgo1(51-105) Y57A/N60A, untagged (dimerization assay) (domain or fragment, human, UniProt Q5FBB7 51-105, looked up)
chain: B1 chain with Y7A, N10A
modifications: cysteine pairing not given here; also: MBP fusion
Take B4: the binding result in assay [4] is “binds”.

B5: Sgo1(51-105) (peptide, UniProt Q5FBB7 51-105, looked up)
chain: B1 chain
Regarding B5, the “stoichiometry N” value with AαB56γCα PP2A holoenzyme was 2 Sgo1 per PP2A holoenzyme. The binding result in assay [5] is recorded as “binds”.

B6: MBP-Sgo1(51-105) Y57A/K62A, untagged (dimerization assay) (domain or fragment, human, UniProt Q5FBB7 51-105, looked up)
chain: B1 chain with Y7A, K12A
modifications: cysteine pairing not given here; also: MBP fusion
Take B6: the binding result in assay [6] was “binds”.
